From patent US20170066831A1 (Janssen / Centocor, published 2017)

T1: mouse ST2L extracellular domain (mouse, UniProt P14719 28-326)
T1 construct: also called mouse ST2L-ECD; muST2L-ECD
T1 sequence: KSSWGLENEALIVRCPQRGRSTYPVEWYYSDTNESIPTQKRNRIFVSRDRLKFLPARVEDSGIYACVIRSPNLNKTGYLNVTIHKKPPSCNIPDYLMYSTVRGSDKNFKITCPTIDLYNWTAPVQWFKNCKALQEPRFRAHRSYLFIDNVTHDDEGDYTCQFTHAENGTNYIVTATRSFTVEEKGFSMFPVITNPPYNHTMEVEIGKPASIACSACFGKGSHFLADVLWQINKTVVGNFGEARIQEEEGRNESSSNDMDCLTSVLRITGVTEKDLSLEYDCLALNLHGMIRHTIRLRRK

T2: cynomolgus (Macaca fascicularis) ST2L extracellular domain with C-terminal His6 tag (Macaca fascicularis (cynomolgus), UniProt Q01638 19-321 (human entry))
T2 construct: also called cyno ST2L-ECD; cynoST2L-ECD
T2 chain: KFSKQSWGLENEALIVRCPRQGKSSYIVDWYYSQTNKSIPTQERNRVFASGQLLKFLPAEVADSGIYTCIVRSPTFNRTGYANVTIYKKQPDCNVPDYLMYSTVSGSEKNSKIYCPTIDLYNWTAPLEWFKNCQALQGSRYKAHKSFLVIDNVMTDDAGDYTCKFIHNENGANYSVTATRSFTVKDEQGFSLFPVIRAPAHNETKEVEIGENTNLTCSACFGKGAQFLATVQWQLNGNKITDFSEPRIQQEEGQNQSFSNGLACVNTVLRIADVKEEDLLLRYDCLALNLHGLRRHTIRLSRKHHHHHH

T3: human ST2L extracellular domain with C-terminal His6 tag (human, UniProt Q01638 19-328)
T3 construct: also called huST2L-ECD; ST2L-ECD
T3 sequence: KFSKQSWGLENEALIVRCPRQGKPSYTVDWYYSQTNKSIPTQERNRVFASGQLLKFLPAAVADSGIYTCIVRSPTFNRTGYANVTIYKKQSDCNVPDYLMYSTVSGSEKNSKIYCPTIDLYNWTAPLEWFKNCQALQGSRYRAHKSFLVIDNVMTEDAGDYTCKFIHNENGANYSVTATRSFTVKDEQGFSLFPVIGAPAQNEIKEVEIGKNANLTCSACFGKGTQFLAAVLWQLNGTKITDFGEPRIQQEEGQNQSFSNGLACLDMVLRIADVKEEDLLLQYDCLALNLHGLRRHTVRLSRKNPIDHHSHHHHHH

T4: human ST2L, full length, on cells (human, UniProt Q01638 19-556)
T4 sequence: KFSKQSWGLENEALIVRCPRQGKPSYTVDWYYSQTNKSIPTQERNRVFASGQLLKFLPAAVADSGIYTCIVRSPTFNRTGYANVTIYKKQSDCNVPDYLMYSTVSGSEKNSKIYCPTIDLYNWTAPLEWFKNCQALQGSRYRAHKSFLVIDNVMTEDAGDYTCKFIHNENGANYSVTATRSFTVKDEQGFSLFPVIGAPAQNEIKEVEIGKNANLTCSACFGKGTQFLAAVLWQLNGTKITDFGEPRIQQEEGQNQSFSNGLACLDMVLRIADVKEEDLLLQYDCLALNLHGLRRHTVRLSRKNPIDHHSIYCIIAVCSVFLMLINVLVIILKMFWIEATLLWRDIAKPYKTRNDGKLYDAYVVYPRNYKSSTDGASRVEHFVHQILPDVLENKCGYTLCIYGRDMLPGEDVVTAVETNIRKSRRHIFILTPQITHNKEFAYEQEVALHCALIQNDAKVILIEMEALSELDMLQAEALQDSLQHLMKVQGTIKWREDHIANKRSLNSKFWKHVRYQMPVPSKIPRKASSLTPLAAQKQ


Columns and labels:
[1] = biological target: T1, mouse ST2L extracellular domain; assay: domain binding assay
Description: (§1) Antibody binding to ST2L domain I, II and III was determined using standard capture ELISA assay using electrochemiluminescent detection format (Meso-Scale Discovery (MSD) technology). 10 μg/mL of each antibody was coated onto each well of an MSD HighBind plate (5 μL/well) for 2 hr at room temperature. […] The plate was covered with aluminum foil and incubated for 1 hr at room temperature with gentle shaking. The plate was then washed 3 times with HEPES wash buffer. MSD read buffer (150 μl) was added to each well, and the plate was then read using an MSD Sector Imager 6000.

[2] = biological target: T2, cynomolgus (Macaca fascicularis) ST2L …; assay: SPR, mAb captured, ST2L-ECD in solution
[3] = biological target: T3, human ST2L extracellular domain with …; assay: SPR, mAb captured, ST2L-ECD in solution
[4] = biological target: T4, human ST2L, full length, on cells; assay: cell-based or functional assay
[5] = biological target: T2, cynomolgus (Macaca fascicularis) ST2L …; assay: ProteOn SPR, mAb captured, ST2L-ECD in solution
Description: (§2) The affinities were analyzed by ProteOn. The experiments were performed at 25° C. using ProteOn's PBS-T-E buffer (PBS, 0.005% P20 and 3 mM EDTA) as running buffer. […] Mab capture was followed by injection of ST2L-ECD from 0.024-15 nM (5-fold dilutions) for 4 min (200 μL at 50 μL/min). The dissociation was monitored for 30 minutes for all reaction. Regeneration was performed using two 15 sec pulses of 10 mM glycine pH1.5. The data was fitted to a 1:1 with baseline drift model.
(§3) Association rates for the samples are fast, the langmuir with mass transfer model was used for curve fitting and estimation of Affinity. All of the samples had faster off rates than the parental clone and control Mab. The difference in off rate was the primary contributor to the lower affinity of the HFA variants when compared to the parent antibody.

[6] = biological target: T3, human ST2L extracellular domain with …; assay: ProteOn SPR, mAb captured, ST2L-ECD in solution
Description: as §2, §3

[7] = biological target: T3, human ST2L extracellular domain with …; assay: RLB ELISA: biotinylated IL-33 on coated huST2L-ECD, antibody titrated; tested as a hybridoma
[8] = biological target: T3, human ST2L extracellular domain with …; assay: MSD competition on coated ST2L-ECD; 30 nM sulfo-tag labeled C2244 Fab displaced by unlabeled competitor
Description: Competition binding assays were performed to evaluate different binding epitope groups for anti-ST2L mAbs. 5 μl (10 μg/ml) of ST2L-ECD protein was coated on MSD HighBind plate (Meso Scale Discovery, Gaithersburg, Md.) per well for 2 hr at room temperature. One-hundred and fifty microliters of 5% MSD Blocker A buffer (Meso Scale Discovery, Gaithersburg, Md.) was added to each well and incubated for 2 hr at room temperature. Plates were washed three times with 0.1 M HEPES buffer, pH 7.4, followed by the addition of the mixture of the MSD fluorescence dye (sulfo tag, NHS ester) labeled individual anti-ST2L antibody with different competitors. Labeled antibody, 10 or 30 nM, was incubated with increasing concentrations of competitor antibodies, from 1 nM to 2 or 5 μM, and then added to the designated wells in a volume of 25 μL mixture. After 2-hour incubation with gentle shaking at room temperature, plates were washed 3 times with 0.1M HEPES buffer (pH 7.4). MSD Read Buffer T was diluted with distilled water (4-fold) and dispensed at a volume of 150 μL/well and analyzed with a SECTOR Imager 6000.

[9] = biological target: T3, human ST2L extracellular domain with …; assay: Fab binding to ST2L, method not detailed; parent C2494 Fab, without the D101aA substitution
[10] = biological target: T3, human ST2L extracellular domain with …; assay: Fab binding to ST2L, method not detailed
[11] = biological target: T1, mouse ST2L extracellular domain; assay: immunosorbent assay with ECL detection, human-mouse domain-swap constructs
Description: as §1

[12] = biological target: T3, human ST2L extracellular domain with …; assay: as above
Description: as §1

[13] = biological target: T3, human ST2L extracellular domain with …; assay: assayed for binding to human ST2L, method not detailed

Binder	Kd [2] [nM]	koff [2] [s⁻¹]	kon [2] [M⁻¹ s⁻¹]	Kd [3] [nM]	koff [3] [s⁻¹]	kon [3] [M⁻¹ s⁻¹]	other results
ST2M49 (antibody, V domains shown, Phage-derived Fab converted to IgG) VH: EVQLVQSGAEVKKPGESLKISCKGSGYSFTSYWIGWVRQMPGKGLEWMGIIYPGDSYTRYSPSFQGQVTISADKSISTAYLQWSSLKASDTAMYYCARIGGMFDYWGQGTLVTVSS VL: EIVLTQSPATLSLSPGERATLSCRASQSVANALAWYQQKPGQAPRLLIYKASNRATGIPARFSGSGSGTDFTLTISSLEPEDFAVYYCQQYYGWPITFGQGTKVEIK	0.266	0.0124	4.66e+07	0.101	0.000161	1.59e+06	binding result [1]: binds
ST2M51 (antibody, V domains shown, Phage-derived Fab converted to IgG) VH: QVQLVQSGAEVKKPGSSVKVSCKASGGTFSSYAISWVRQAPGQGLEWMGGIIPIFGTANYAQKFQGRVTITADESTSTAYMELSSLRSEDTAVYYCARDTPQLDYWGQGTLVTVSS VL: not shown	0.076	0.00336	4.42e+07	0.038	4.87e-05	1.29e+06	binding result [1]: binds
STLM62 (antibody, human IgG2, V domains shown, Mouse hybridoma C2494 cloned into human IgG2 background (STLM62); also called C2494) VH: EVQLQQSVAELVRPGASVKLSCTASAFNIKDDYMHWVKQRPEQGLEWIGRIDPAIGNTEYAPKFQDKATMTADTSSNTAYLQLSSLTSEDTAVYYCALGDFYAMDYWGQGTSVTVSS VL: ETTVTQSPASLSVATGEKVTIRCITNTDIDDVIHWYQQKPGEPPKLLISEGNTLRPGVPSRFSSSGYGTDFVFTIENTLSEDVADYYCLQSDNMLTFGAGTKLELK	0.012	0.000539	4.51e+07	0.028	0.000119	4.26e+06	RGA IC50 [4]: 0.11 µg/mL; Kd [5]: 0.0123 nM; koff [5]: 0.000457 s⁻¹; kon [5]: 3.84e+07 M⁻¹ s⁻¹; Kd [6]: 8.67 pM; koff [6]: 0.000159 s⁻¹; kon [6]: 1.84e+07 M⁻¹ s⁻¹; IC50 [7]: 0.7 µg/mL; IC50 (read off the curve) [8]: ~100 nM
C2494 Fab (Fab, V domains shown) VH: EVQLQQSVAELVRPGASVKLSCTASAFNIKDDYMHWVKQRPEQGLEWIGRIDPAIGNTEYAPKFQDKATMTADTSSNTAYLQLSSLTSEDTAVYYCALGDFYAMDYWGQGTSVTVSS VL: ETTVTQSPASLSVATGEKVTIRCITNTDIDDVIHWYQQKPGEPPKLLISEGNTLRPGVPSRFSSSGYGTDFVFTIENTLSEDVADYYCLQSDNMLTFGAGTKLELK							koff [9]: 0.000143 s⁻¹
C2494 Fab with D101aA (Chothia) substitution in VH (Fab, V domains shown) VH: EVQLQQSVAELVRPGASVKLSCTASAFNIKDDYMHWVKQRPEQGLEWIGRIDPAIGNTEYAPKFQDKATMTADTSSNTAYLQLSSLTSEDTAVYYCALGDFYAMAYWGQGTSVTVSS VL: ETTVTQSPASLSVATGEKVTIRCITNTDIDDVIHWYQQKPGEPPKLLISEGNTLRPGVPSRFSSSGYGTDFVFTIENTLSEDVADYYCLQSDNMLTFGAGTKLELK							fold decrease of koff against C2494 [10]: ~4 fold
CNTO3914 (antibody, mouse IgG1, V domains shown, Rat hybridoma C1999 V regions cloned into mouse IgG1 background; also called C1999) VH: EVQLVESGGGLLQPGRSLKLSCTASGFIFSHYGMAWVRQAPTKGLEWVSSIITDGTSTYYRDSVKGRFTISRDNAKNTQYLQMDSLRSEDTATYYCARQSDDYFDYWGQGVMVTVSS VL: DVVLTQTPVSLSVTLGDQASISCKSSQSLEYSDGDSYLEWYLQKPGQSPQLLIYGVSNRFSGVPDRFIGSGSGTDFTLKISRVEPEDLGVYYCFQATHDPFTFGSGTKLEIK							binding result [11]: binds; binding result [12]: no binding
STLM15 (antibody, human IgG2, V domains shown, Mouse hybridoma C2244 cloned into human IgG2 background (STLM15); also called C2244) VH: EVQLQESGPGLVKPSQSLSLTCTVTGFSITSDYAWNWIRQFPGSKLEWMGFISYSGDTSFNPSLKSRISVTRDTSKNQFFLQLNSVTTEDTATYYCASYDGYSFDYWGQGTTLTVSS VL: DIVLTQSPASLAISLGQRATISCRASKSVSTSGSSYMFWYQQKPGQPPKLLIYLASNLESGVPARFSGSGSGTDFTLNIHPVEEEDAAAYYCQHSREIPYTFGGGTKLEIK	0.011	5.3e-05	4.81e+06	0.042	4.25e-05	1.02e+06	IC50 (read off the curve) [8]: ~90 nM
STLM189 (antibody, V domains shown, C2494 HFA mAb: VH STLH195 + VL STLL278 (L2)) VH: QVQLVQSGAEVKKPGASVKVSCKVSAFNIKDDYMHWVRQAPGKGLEWMGRIDPAIGNTEYAPKFQDRVTMTEDTSTDTAYMELSSLRSEDTAVYYCATGDFYAMDYWGQGTLVTVSS VL: EIVMTQSPATLSVSPGERATLSCITNTDIDDVIHWYQQKPGQAPRLLIYEGNTLRPGIPARFSGSGSGTEFTLTISSLQSEDFAVYYCLQSDNMLTFGQGTKLEIK							binding result [13]: binds
